Measured values as given in publication PMC7335780, “Role of folding kinetics of secondary structures in telomeric G-overhangs in the regulation of telomere maintenance in Saccharomyces cerevisiae”.

Key:
Cdc13-DBD [1] = biological target: T1, Cdc13-DBD (Saccharomyces cerevisiae (strain SCY325), UniProt P32797 497-694); assay: competition; competitor in water, 50 or 75 nM, vs 32P-ONG11; EMSA: 1x K+ buffer (20 mM potassium phosphate pH 7.0, 135 mM KCl, 9% glycerol), 10 min at 22 C/RT, 6% PAGE in 0.5x TBE; NMR in K+TD (K+ buffer + 0.25% Triton X-100, 1 mM DTT); conditions: protein: recombinant, tags: GST tag (pGEX-6T-2) removed with HRV 3C protease, vector-derived residues may remain, unfolded single strand
T1 sequence: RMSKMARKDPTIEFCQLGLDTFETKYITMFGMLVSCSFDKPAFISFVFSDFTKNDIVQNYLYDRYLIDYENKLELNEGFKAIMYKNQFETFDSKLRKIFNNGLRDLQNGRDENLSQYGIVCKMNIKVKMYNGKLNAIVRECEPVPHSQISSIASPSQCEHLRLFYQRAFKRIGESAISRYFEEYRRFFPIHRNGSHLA

Cdc13-DBD [2] = biological target: T1, Cdc13-DBD; assay: EMSA; freshly boiled probe, protein titration; EMSA: 1x K+ buffer (20 mM potassium phosphate pH 7.0, 135 mM KCl, 9% glycerol), 10 min at 22 C/RT, 6% PAGE in 0.5x TBE; NMR in K+TD (K+ buffer + 0.25% Triton X-100, 1 mM DTT); conditions: protein: recombinant; tags: GST tag (pGEX-6T-2) removed with HRV 3C protease; vector-derived residues may remain; label: 5'-32P; single strand when freshly boiled; G-hairpin after long folding

GTGTGGGTGTGGTGTGGGTGTGGTGTGGGTGTG (ssDNA) [ONG1 unfolded (H2O)]
binding result (Cdc13-DBD [1]; label: none): binds

GTGTGGGTGTG (ssDNA, 5' phosphate) [ONG11 5'-32P probe]
binding result (Cdc13-DBD [2]): binds

GTGTGGGTGTG (ssDNA) [ONG11 unfolded (H2O or freshly boiled)]
binding result (Cdc13-DBD [1]): binds
